# Assay results taken from patent publication US20210072228A1 (UT BATTELLE, published 2021).
# B1: GFP tagged PAN domain construct of RLK5 (SapurV1A.0037s0270.1) (receptor)
# chain: DSDYNMDTYEHTFLYGIYPPNEAIIIASLQQCREVCMQDPGCTAATFTNDGTSQCRMKTSPYFSGHQNPSLSSISFVKT
# notes: It was expressed in HEK293 cells and purified on a GFP column; not shown: GFP tag
# Target: the molecule itself
# Experiment: size exclusion chromatography (homodimerization) of GFP-tagged PAN domain purified from HEK293 cells
# From the text: These cysteine residues coordinate three disulfide bridges to form a hairpin structure. The inventors hypothesized that cysteine rich PAN domain of G-lecRLKs form disulfide bonds involved in dimerization and subsequent receptor proteolysis to prevent downstream signaling cascades. To address this hypothesis, a GFP tagged PAN domain construct of RLK5 was made. In addition, mutated amino acids in the RLK5 vestigial domain were restored to consensus PAN domain amino acids based on the alignment in FIG. 1, this construct was designated RLK5-restored (RLK5R). Both RLK5 and RLK5R constructs were transfected and overexpressed in HEK293 cells. Proteins were purified on GFP column and loaded into size exclusion column (SEC) to analyze the oligomeric state.
protein,measurement,value
B1,binding result,no binding
